Here are results for one substance from patent US20110117602A1.

For assay [1], the target named is HLA-DR on Daudi cells (human). Description: FACS analysis, PE-labeled L243 on Daudi cells. (A flow cytometer gives signals particle by particle.)
The target of assay [2] is HLA-DR on M8166 cells (human). In words: FACS analysis, PE-labeled L243 on M8166 cells.

Sequence of L243 mouse monoclonal antibody to HLA-DR α chain (VH): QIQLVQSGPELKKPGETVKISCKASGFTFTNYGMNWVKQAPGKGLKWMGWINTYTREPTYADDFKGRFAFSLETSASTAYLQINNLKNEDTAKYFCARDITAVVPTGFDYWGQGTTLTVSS
Sequence of L243 mouse monoclonal antibody to HLA-DR α chain (VL): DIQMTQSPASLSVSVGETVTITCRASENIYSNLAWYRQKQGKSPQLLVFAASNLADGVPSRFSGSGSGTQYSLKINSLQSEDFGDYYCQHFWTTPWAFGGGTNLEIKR

With “L243 mouse monoclonal antibody to HLA-DR α chain”, the results for the fluorescence as a fraction of that of S1T cells in assay [1] and in assay [2] were 0.1 and 0.01, respectively.
